From publication PMC6316451
Read-outs that look alike come from different tables or passages of the source.

Key:
[1] = molecular target: HIV-1 capsid protein CA N21C/A22C (HIV-1 NL4-3); assay: cross-linking; engineered disulfide cross-links read by non-reducing SDS-PAGE; after assembly: purified protein at 1 mg/mL (also about 4 and 10 mg/mL) dialyzed into 50 mM Tris-HCl, pH 8.0, 1 M NaCl overnight at 4 °C, no reductant
[2] = molecular target: HIV-1 capsid protein CA N21C/A22C (HIV-1 NL4-3); assay: as above; remark: listed apart in the source

HIV-1 capsid protein CA N21C/A22C (natural protein)
stoichiometry N [1]: 5 | stoichiometry N [2]: 6
